Measurements taken from patent US20080274100A1.

Experiments:
Experiment in all cases: peptide ELISA, 0.5 µg/well scFv
[1] = target: CCR5 (residues 1-18) derived peptide, sulfated at 2nd tyrosine position
[2] = target: CCR5 (residues 1-18) derived peptide, sulfated at 3rd tyrosine position
[3] = target: GPIb (residues 268-285) derived peptide, sulfated at 1st tyrosine position
[4] = target: GPIb (residues 268-285) derived peptide, sulfated at 3rd tyrosine position
[5] = target: CCR5 (residues 1-18) derived peptide, sulfated at 1st tyrosine position
[6] = target: CCR5 (residues 1-18) derived peptide, non-sulfated
[7] = target: GPIb (residues 268-285) derived peptide, non-sulfated
[8] = target: PSGL-1 (residues 42-58) derived peptide, sulfated at 2nd tyrosine position
[9] = target: PSGL-1 (residues 42-58) derived peptide, sulfated at 1st tyrosine position
[10] = target: PSGL-1 (residues 42-58) derived peptide, sulfated at 3rd tyrosine position
[11] = target: PSGL-1 (residues 42-58) derived peptide, non-sulfated

ELISA read-out at 450 nm [1]: 0.06 OD 450 nm | ELISA read-out at 450 nm [2]: 0.06 OD 450 nm | ELISA read-out at 450 nm [3]: 0.07 OD 450 nm | ELISA read-out at 450 nm [4]: 0.07 OD 450 nm | ELISA read-out at 450 nm [5]: 0.06 OD 450 nm | ELISA read-out at 450 nm [6]: 0.06 OD 450 nm | ELISA read-out at 450 nm [7]: 0.07 OD 450 nm | ELISA read-out at 450 nm [8]: 0.06 OD 450 nm | ELISA read-out at 450 nm [9]: 0.06 OD 450 nm | ELISA read-out at 450 nm [10]: 0.06 OD 450 nm | ELISA read-out at 450 nm [11]: 0.06 OD 450 nm
Substance: N06 scFv (negative control)
